Data on 5 substances can be found in PMC3681702.

Where two headings read alike, the source gives them in different places.

The target of experiment [1] is p75 C257A/G266I mutant tagged with mEGFP (human) (UniProt P08138). Nature of the experiment: non-reducing SDS-PAGE of immunoprecipitated protein.
The target in experiment [2] is p75 G247C mutant tagged with mEGFP (human) (UniProt P08138). The experiment is described as above.
Experiment [3] concerns the target p75 G247C/Δ250 mutant tagged with mEGFP (human). The experiment is described as above.
In experiment [4] the target is p75 Δ193/C257A/G266I mutant tagged with mEGFP (human). Nature of the experiment: number and brightness.
Experiment [5] deals with wild-type neurotrophin receptor p75 tagged with mEGFP (p75-EGFP) (human) (UniProt P08138). In words: photon-counting histogram.
For experiment [6] the target is unchanged. In words: number and brightness.
The target is the same in experiment [7]. In words: non-reducing SDS-PAGE of immunoprecipitated protein.
The target is the same in experiment [8]. Described as above. The source holds these as a separate data set.

“p75 C257A/G266I mutant tagged with mEGFP (from UniProt P08138 29-427) (receptor)”: in experiment [1], the percent recovered as dimer was 0.8%.

Turning to “p75 G247C mutant tagged with mEGFP (from UniProt P08138 29-427) (receptor)”, the percent recovered as dimer in experiment [2] amounted to 29%.

Take “p75 G247C/Δ250 mutant tagged with mEGFP (receptor)”: the percent recovered as dimer in experiment [3] was found to be 56%.

“p75 Δ193/C257A/G266I mutant tagged with mEGFP (receptor)” showed a stoichiometry N (molecules per oligomer) in experiment [4] of 2.9.

For “wild-type neurotrophin receptor p75 tagged with mEGFP (p75-EGFP) (from UniProt P08138 29-427)”, in experiment [5], the median brightness normalised to EGFP came to 1.71 x EGFP, the stoichiometry N is 3 and the stoichiometry N (EGFP molecules per complex) is 1 to 5. Moreover, in experiment [6], the average brightness normalised to EGFP, center of the TGN came to 6.9 x EGFP; the average brightness normalised to EGFP, periphery of the TGN worked out at 10.4 x EGFP; the stoichiometry N (molecules per oligomer) turned out to be 8.8. Also, the percent recovered as dimer in experiment [7] turned out to be 5.8%. In experiment [8], this substance gave a percent recovered as dimer of 6.9%.

The term stoichiometry N denotes the number of molecules, sites or subunits per partner or assembly.
